The values below come from paper PMC3567247 (Biochemistry, 2012).

Experiment in all cases: SPR
Assay [1] deals with T1, Lymphotoxin-α (UniProt P01374 35-205).
T1 sequence (looked up): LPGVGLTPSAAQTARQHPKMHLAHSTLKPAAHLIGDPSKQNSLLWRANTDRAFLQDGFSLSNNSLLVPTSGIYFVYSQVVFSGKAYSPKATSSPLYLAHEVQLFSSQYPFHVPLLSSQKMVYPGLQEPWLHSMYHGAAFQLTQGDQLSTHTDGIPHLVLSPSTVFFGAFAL

The target in assay [2] is T1, Lymphotoxin-α. This is another data set of the same source.
For assay [3], the target named is T1, Lymphotoxin-α. The source holds these as a separate data set.

Like-named read-outs stand apart in the source and are kept apart here.

B1: Soluble TNFR1 extracellular domain, residues 40-201 (receptor, human, UniProt P19438 40-201, looked up)
chain: RDSVCPQGKYIHPQNNSICCTKCHKGTYLYNDCPGPGQDTDCRECESGSFTASENHLRHCLSCSKCRKEMGQVEISSCTVDRDTVCGCRKNQYRHYWSENLFQCFNCSLCLNGTVHLSCQEKQNTVCTCHAGFFLRENECVSCSNCKKSLECTKLCLPQIEN
With B1, the Kd with Lymphotoxin-α [1] amounted to 50 ± 10 nM. In the assay with Lymphotoxin-α [2], this molecule showed a Kd of 46 nM, a koff of 0.0092 s⁻¹ and a kon of 170000 M⁻¹ s⁻¹. Moreover, in the assay with Lymphotoxin-α [3], binding was characterised by a dissociation constant (Kd) of 57 nM.

The term Kd denotes the equilibrium constant for the complex coming apart. As a reminder, the koff is a measure of how fast the partners let go of each other. A word on the kon: it is the rate constant with which the complex forms. A higher kon goes with faster complex formation.
